Where two headings read alike, the source gives them in different places.
What was measured:
[1] = target: T1, A/South Carolina/1/1918 (H1N1) hemagglutinin ectodomain (Influenza A virus A/South …); experiment: yeast surface display titration
[2] = target: T1, A/South Carolina/1/1918 (H1N1) …; experiment: yeast surface display titration; remark: listed apart in the source

B1: HB80.3_s4_E94 (designed binder)
chain: ASTRGSGRPWKFSENVAFELALYFTNKDTPDRWAKVARYVKGRTPEEVKKHYE
B1: binds [1].

B2: HB36.4_s4_E11 (designed binder)
chain: MSNAMDGQQLNRLLLEWIGAWDPFGLGKDAYDVEADAVLKAVYETNSAFDLAMRIHWIYNFAFKRKIPFVHAQKLARRLLELKQAASSPLP
B2: binds [2].

B3: HB80.3_s4_E82 (designed binder)
chain: MASTRGSGRPWKFSENVAFEIALSFTNKDTPDRWAKVARYVRGRTPEEVKKHYE
B3: binds [1].

— patent US20150038408A1 (University of Washington, published 2015)
